B1: murine anti-fHbp monoclonal antibody 12C1 (IgG2b) (antibody, V domains shown)
VH: QVQLQESGPELVKPGASVKISCKASGYSFSDYNMSWVKQSNGKSLEWIGIIDPKYGTINYNQKFKGKATLTVDQASSTAYMQLNSLTSEDSAVYYCVRDYYGSSYFDYWGQGTTLTVSS
VL: DIVLTQSPSSIYASLGERVTLTCKASQDIHNYLNWFQQKPGKSPKTLIYRANRLVDGVPSRFSGGGSGQDYSLTISSLEFEDIGIYYCLQYDEFPPTFGGGTRLEIK
notes: also called mAb 12C1

One assay deals with T1, factor H binding protein (fHbp) variant 1.1, wild type (Neisseria meningitidis serogroup B …, UniProt Q9JXV4).
T1 construct: source: E. coli BL21(DE3), purified
The experiment in a line: SPR; fHbp covalently immobilised by amine coupling on a CM5 chip (~500 RU); mAbs at 100 nM in HBS-EP injected one after the other (first mAb to saturation, then the second), both orders; 25 °C. The note with it: both partners purified. On the technique in general: SPR reads the build-up and loss of mass on a sensor chip optically.
Regarding B1, the binding result is recorded as “binds”.

The target of a further assay is murine anti-fHbp monoclonal antibody JAR5 (IgG2b) (mouse). In words: SPR.
Sequence of murine anti-fHbp monoclonal antibody JAR5 (IgG2b) (mouse) (heavy, as listed by the source, chain 1 of 2, other chains not shown): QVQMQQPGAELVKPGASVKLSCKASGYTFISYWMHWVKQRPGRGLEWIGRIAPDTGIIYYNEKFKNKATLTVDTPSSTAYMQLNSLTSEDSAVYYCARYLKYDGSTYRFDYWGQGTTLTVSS
Details: not given
As a reminder, the Kd is a measure of binding affinity in units of concentration. “fHbp variant 1.1 Gln87Ala mutant (natural protein)” showed a Kd of 1.7 nM.

Consider “fHbp variant 1.1 Gln115Ala mutant (natural protein)”, for which the Kd is 23 nM.

In turn, “fHbp variant 1.1 Gly121Ala mutant (natural protein)” showed a Kd of 20 nM.

As to “fHbp variant 1.1 Lys122Ser mutant (natural protein)”, the Kd is 13 nM.

As for “fHbp variant 1.1 Lys122Ala mutant (natural protein)”, the Kd was 17 nM.

“fHbp variant 1.1 Asp85Ala mutant (natural protein)” had a Kd of 20 nM.

(Values after paper PMC6398935 (The Biochemical journal, 2016).)
